Experimental data taken from publication doi:10.1101/2021.08.20.457118 (bioRxiv, 2021).

Target: linear di-Ub (M1-linear from UbiQ) (UniProt P0CG47)
Test: SPR

B1: His-tagged Ufd2p (enzyme)
chain: MTAIEDILQITTDPSDTRGYSLLKSEEVPQGSTLGVDFIDTLLLYQLTENEKLDKPFEYLNDCFRRNQQQKRITKNKPNAESLHSTFQEIDRLVIGYGVVALQIENFCMNGAFINYITGIVSNVNSYTDFLSQIIQRAILEGTALDLLNAVFPTLLEYCNKHVSHFDLNESVIYNNVLTIFELFVTFKPIAEIFTKIDGFFADYSCKPQDFERKTILGPILSLSPIEAAVAIRNYGDNLLRSKQQTAMIHESLQAEHKVVIDRLFFIVDKLVRGSLNSRTDMISYFAHIANKNHLRRADHPPFKELSSNGFMSNITLLLVRFSQPFLDISYKKIDKIDANYFNNPSLFIDLSGETRLNSDFKEADAFYDKNRKTADSKPNFISDCFFLTLTYLHYGLGGTLSFEEKMGSEIKALKEEIEKVKKIAANHDVFARFITAQLSKMEKALKTTESLRFALQGFFAHRSLQLEVFDFICGASTFLIRVVDPEHEFPFKQIKLPLIPDQIGVENVDNADFLRAHAPVPFKYYPEFVVEGPVNYSLYISKYQTSPIFRNPRLGSFVEFTTMVLRCPELVSNPHLKGKLVQLLSVGAMPLTDNSPGFMMDIFEHDELVNKNLLYALLDFYVIVEKTGSSSQFYDKFNSRYSISIILEELYYKIPSYKNQLIWQSQNNADFFVRFVARMLNDLTFLLDEGLSNLAEVHNIQNELDNRARGAPPTREEEDKELQTRLASASRQAKSSCGLADKSMKLFEIYSKDIPAAFVTPEIVYRLASMLNYNLESLVGPKCGELKVKDPQSYSFNPKDLLKALTTVYINLSEQSEFISAVAKDERSFNRNLFVRAVDILGRKTGLASPEFIEKLLNFANKAEEQRKADEEEDLEYGDVPDEFLDPLMYTIMKDPVILPASKMNIDRSTIKAHLLSDSTDPFNRMPLKLEDVTPNEELRQKILCFKKQKKEEAKHKASE
  binding result: binds
